Results on 2 molecules are retold here after patent publication US20120328619A1 (published 2012).

The target in assay [1] is T1, human CD123 (alpha subunit of the interleukin-3 receptor) (human, UniProt P26951 19-378).
T1 construct: whole, on cells; also called IL-3Rα
Kind of assay: calibrated flow cytometry. For orientation: Flow cytometry measures light scatter and fluorescence of single cells or particles in a stream.

The target of assay [2] is T2, CD33 (human, UniProt P20138 18-364).
T2 construct: whole, on cells; also called CD33 on U937 cells
Nature of the assay: calibrated flow cytometry on U937 cells. Here is the method:
(§1) Immunofluorescence analysis was performed on a FACSCalibur instrument using CellQuest software (Becton Dickinson, Heidelberg, Germany) as described (Schwemmlein et al, 2006). Briefly, 1×10⁴ events were collected for each sample, and whole cells were analyzed using appropriate scatter gates to exclude cellular debris and aggregates. […] KD values were determined by calibrated flow cytometry, as described (Benedict at al, 1997). The highest mean fluorescence value was set to 100%, and all data points were normalized to this value. The experiments were repeated 6 times. The KD values were calculated using a nonlinear regression curve fit.

Assay [3] has as its target T3, human CD16 (FcγRIII) (human, UniProt P08637 17-254).
T3 construct: whole, on cells
Nature of the assay: calibrated flow cytometry on CD16-transfected CHO cells. The method, then:
as §1

Assay [4] deals with T1, human CD123 (alpha subunit of the …). Nature of the assay: calibrated flow cytometry on CD123-transfected 293 cells. The method, then: as §1
In assay [5] the target is T4, CD123 and CD33 on double positive MOLM-13 cells (human, UniProt P26951 19-378; P20138 18-364).
T4 construct: whole, on cells; Two separate surface antigens on the same cell, not a complex; also called CD33/CD123
Nature of the assay: calibrated flow cytometry on CD123 and CD33 double positive MOLM-13 cells (avidity). The method, then:
as §1

T1 sequence (P26951 19-378): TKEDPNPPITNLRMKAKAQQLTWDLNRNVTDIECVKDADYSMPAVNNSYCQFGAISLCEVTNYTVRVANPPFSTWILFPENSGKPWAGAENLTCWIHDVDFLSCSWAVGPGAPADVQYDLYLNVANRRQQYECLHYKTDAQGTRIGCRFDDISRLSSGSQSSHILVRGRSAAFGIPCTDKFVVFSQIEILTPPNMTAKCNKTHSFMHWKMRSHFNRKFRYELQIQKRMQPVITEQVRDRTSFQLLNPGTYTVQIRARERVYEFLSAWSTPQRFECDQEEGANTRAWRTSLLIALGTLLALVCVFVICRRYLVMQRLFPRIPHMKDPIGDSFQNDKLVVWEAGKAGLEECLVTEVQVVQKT
T2 sequence (P20138 18-364): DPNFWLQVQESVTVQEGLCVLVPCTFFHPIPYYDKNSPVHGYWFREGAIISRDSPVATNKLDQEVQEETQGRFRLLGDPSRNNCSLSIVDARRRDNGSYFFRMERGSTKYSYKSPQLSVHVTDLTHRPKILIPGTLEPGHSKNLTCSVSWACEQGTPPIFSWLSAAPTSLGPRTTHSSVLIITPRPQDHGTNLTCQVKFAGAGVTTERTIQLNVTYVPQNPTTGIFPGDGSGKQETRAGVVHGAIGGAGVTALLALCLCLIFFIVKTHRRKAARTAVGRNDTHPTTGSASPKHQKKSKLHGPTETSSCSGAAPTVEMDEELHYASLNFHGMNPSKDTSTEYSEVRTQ
T4 sequence (P26951 19-378, chain 1 of 2): as the sequence (P26951 19-378) above
T4 sequence (P20138 18-364, chain 2 of 2): as the sequence (P20138 18-364) above
T3 sequence (P08637 17-254): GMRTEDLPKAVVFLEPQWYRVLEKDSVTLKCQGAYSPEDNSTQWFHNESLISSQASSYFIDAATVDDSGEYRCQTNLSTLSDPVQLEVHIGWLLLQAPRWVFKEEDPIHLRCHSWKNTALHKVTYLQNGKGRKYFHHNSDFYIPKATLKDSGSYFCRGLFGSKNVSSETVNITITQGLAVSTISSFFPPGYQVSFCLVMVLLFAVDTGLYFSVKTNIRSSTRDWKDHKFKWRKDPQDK

B1: CD123-specific scFv clone 43 (scFv)
scFv: MADYKDIVMTQSHKFMSTSVGDRVNITCKASQNVDSAVAWYQQKPGQSPKALIYSASYRYSGVPDRFTGRGSGTDFTLTISSVQAEDLAVYYCQQYYSTPWTFGGGTKLEIKRGGGGSGGGGSGGGGSGGGGSEVKLVESGGGLVQPGGSLSLSCAASGFTFTDYYMSWVRQPPGKALEWLALIRSKADGYTTEYSASVKGRFTLSRDDSQSILYLQMNALRPEDSATYYCARDAAYYSYYSPEGAMDYWGQGTSVTVSS
notes: Murine scFv from a phage display library, expressed in E. coli from pAK400, carries a hexahistidine tag
B1: the Kd in assay [1] was found to be 0.0045 µM.

B2: single chain triplebody sctb [123×ds16×33] (other)
chain: MADYKDIVMTQSHKFMSTSVGDRVNITCKASQNVDSAVAWYQQKPGQSPKALIYSASYRYSGVPDRFTGRGSGTDFTLTISSVQAEDLAVYYCQQYYSTPWTFGGGTKLEIKRGGGGSGGGGSGGGGSGGGGSEVKLVESGGGLVQPGGSLSLSCAASGFTFTDYYMSWVRQPPGKALEWLALIRSKADGYTTEYSASVKGRFTLSRDDSQSILYLQMNALRPEDSATYYCARDAAYYSYYSPEGAMDYWGQGTSVTVSSASGAGGGGSGGGGSGGGGSGGGGSAAADYKDIVLTQSPASLAVSLGQRATISCKASQSVDFDGDSFMNWYQQKPGQPPKLLIYTTSNLESGIPARFSASGSGTDFTLNIHPVEEEDTATYYCQQSNEDPYTFGCGTKLELKRGGGGSGGGGSGGGGSGGGGSQVTLKESGPGILQPSQTLSLTCSFSGFSLRTSGMGVGWIRQPSGKCLEWLAHIWWDDDKRYNPALKSRLTISKDTSSNQVFLKIASVDTADTATYYCAQINPAWFAYWGQGTLVTVSRGGGGSGGGGSGGGGSGGGGSMADYKDIVMTQSHKFLLVSVGDRVSITCKASQDVSTAVAWYQQKPGQSPKLLIYSASYRYTGVPDRFIGSGSGTDFTLTISSVQAEDLADYFCQQHYSTPLTFGAGTKLEIKRGGGGSGGGGSGGGGSSGGGSEVQLKESGPGLVAPSQSLSITCTVSGFPLTSYGVSWVRQPPGKGLEWLGVIWGDGSTNYHSALISRLSISKDNSKSQVFLKLNNLQTDDTATYYCARDTYYPYYAMDYWGQGTSVTVSS
notes: also called CD123×dsCD16×CD33
As for B2, the Kd was determined as 0.0178 µM in assay [2], 0.0217 µM in assay [3], 0.0188 µM in assay [4] and 0.0135 µM in assay [5].
